Results as given in paper PMC5183740.

Molecular target: SA-M2e (streptavidin core fused to three consecutive copies of M2e of A/PARIS/2590/2009 (H1N1)) (Streptomyces avidinii | influenza A virus A/PARIS/2590/2009 (H1N1))
Test: SDS-PAGE of unheated samples

Substance: SA-M2e (streptavidin core fused to three consecutive copies of M2e of A/PARIS/2590/2009 (H1N1))
- stoichiometry N: 4
